According to publication PMC3247280, “Oligomerization of ZFYVE27 (Protrudin) Is Necessary to Promote Neurite Extension” (PLoS ONE, 2011):

B1: ZFYVE27^WT (full-length ZFYVE27, E2- or c-Myc-tagged, in mammalian cells) (natural protein, human, UniProt Q5T4F4-2 1-404, looked up)
chain: MQTSEREGSGPELSPSVMPEAPLESPPFPTKSPAFDLFNLVLSYKRLEIYLEPLKDAGDGVRYLLRWQMPLCSLLTCLGLNVLFLTLNEGAWYSVGALMISVPALLGYLQEVCRARLPDSELMRRKYHSVRQEDLQRGRLSRPEAVAEVKSFLIQLEAFLSRLCCTCEAAYRVLHWENPVVSSQFYGALLGTVCMLYLLPLCWVLTLLNSTLFLGNVEFFRVVSEYRASLQQRMNPKQEEHAFESPPPPDVGGKDGLMDSTPALTPTEDLTPGSVEEAEEAEPDEEFKDAIEEDDEGAPCPAEDELALQDNGFLSKNEVLRSKVSRLTERLRKRYPTNNFGNCTGCSATFSVLKKRRSCSNCGNSFCSRCCSFKVPKSSMGATAPEAQRETVFVCASCNQTLSK
notes: numbers count on: this 404-residue isoform; Each copy carries only one tag: E2 (vector pQM-N-Tag A) or six c-Myc tags (vector pCS2-myc); The two differently tagged copies are written as one molecule because the protein is tested against itself; With the E2-tagged deletion constructs the c-Myc copy was used; with GFP-Spastin and in the sucrose gradient the E2 copy; also called E2-ZFYVE27^WT; …
B2: endogenous ZFYVE27 of NSC34 cells (natural protein, mouse (endogenous in NSC34), UniProt Q3TXX3 1-415, looked up)
chain: MQTSDRDLSGPEASPSGMPEVLSECPPAPTKSAAFDLFNLVLSYKRLEIYLEPLKDAGDGVRYLLRWQMPLCSLLTCLGLNILFLTLNEGAWYSMGALMISVPALLGYLQEVCRGQLPESELMRRKYHSIRQEDLQRVRLSRVHLSRPEAVAEVKSFLIQLEAFLARLCYTCESAYRVLHWENPVVSSQFYGALLGMVCMLYLLPLCWVLALLNSTLFLGNGDFFRVVCEYRACLQRRMNPRQEECACESSALQGAGGRGLLDSSPAPTPTEDLTPGSVEEAEEAEPDEEFKDAIEETHLVVLEDEEGTPCPAEDELTLQDNGFLSKNEVLRSKVSRLTERLRKRYPTNNFGNCAGCAATFSVLKKRRSCSNCGNSFCSRCCSFKVPRSSMGATAPEAQRETVCVCASCNQTLSK
notes: ZFYVE27 expressed endogenously in NSC34 (a mouse embryonic spinal cord-neuroblastoma hybrid cell line); also called mo-ZFYVE27; di-ZFYVE27

What was measured:
[1] = target: the molecule itself; experiment: SDS-PAGE and immunoblot (SDS-resistant dimer); lysates of NIH-3T3 overexpressing E2-ZFYVE27^WT or c-Myc-ZFYVE27^WT, immunoblot with ZFYVE27 antibody
[2] = target: the molecule itself; experiment: SDS-PAGE and immunoblot (SDS-resistant dimer); NSC34 cell extract, cytosolic (S-100) and membrane (P-100) fractions, immunoblot with ZFYVE27 antibody

Row | Protein | stoichiometry N [1] | stoichiometry N [2]
1 | B1 | 2 | 
2 | B2 |  | 2
